In patent US20240043552A1 (Eli Lilly, published 2024):
Changes are numbered by the printed parent chain. Numbers in names are those of the source.

Tests used:
Assay in all cases: sandwich ELISA with mis-matched antigens
hHER-2-Fc = molecular target: T1, hHER-2-Fc (human, UniProt P04626 23-652)
T1 construct: Bought (R&D systems); Coated on the plate; not shown: Fc of the bought fusion protein
Protocol: (§1) The dual-binding activity of the same synthesized IgG BsAbs is assessed using a sandwich ELISA. […] Sandwich ELISAs are developed for detecting the four different BsAb test articles; one for detecting anti-HER-2/anti-EGFR BsAb activity, one for detecting anti-HER-2/anti-LTPR BsAb activity, one for detecting anti-cMET/anti-EGFR BsAb activity and one for detecting anti-cMET/anti-LTPR BsAb activity. For all ELISAs, clear 96-well round bottom high binding Immulon microtiter plates (Greiner bio-one, cat #650061) are coated overnight at 2-8° C. with 50 μL/well 1 μg/mL hHER-2-Fc or 1 μg/mL hHGFR(cMet)-Fc (both from R&D systems) in a 50 mM Na2CO3 pH 8.3 buffer. The plates are washed 4 times with PBST and blocked with 200 μL/well casein buffer (Pierce) for 1 hr at room temperature. The plates are then washed 4 times with PBST and the parental IgG controls or BsAb IgG test articles are added at 50 μL/well and […] and serially diluted 1:3 down the plate. The controls and test articles are incubated on the plate for 1 hr at room temperature. The plates are then washed 4 times with PBST and 50 μL/well 1 μg/mL hEGFR-Fc-biotin or hLTβR-Fc-biotin (both from R&D systems) is added for 1 hr at room temperature. The plates are then washed 4 times with PBST followed by the addition of a 50 μL/well streptavidin-AP (Jackson Immunoresearch Labs Cat. #016-050-084) diluted 1:1000 in casein buffer. The streptavidin-AP is incubated in each well for 1 hr at room temperature. The plates are then washed 4 times with PBST and 100 μL/well 1-step PNPP substrate is added (Thermo Scientific Cat. #37621). After approximately 5-15 minutes, plates are read for Absorbance (405 nm) using a SPECTRAMAX® UV plate reader (Molecular Devices). Biotin-labeling of the hEGFR-Fc and hLTβR-Fc proteins is performed using EZ-LINK™ Sulfo-NHS-LC-Biotin (Thermo Scientific Cat. #21327) according to the manufacturer's protocol.

hLTβR-Fc-biotin = molecular target: T2, hLTβR-Fc-biotin (human, UniProt P36941 28-227, limits assumed, biotin-labelled with EZ-LINK Sulfo-NHS-LC-Biotin)
T2 construct: Bought (R&D systems); Detection antigen of the sandwich; also called LTPR (as printed once); not shown: Fc of the bought fusion protein
T2 sequence (P36941 28-227 limits assumed): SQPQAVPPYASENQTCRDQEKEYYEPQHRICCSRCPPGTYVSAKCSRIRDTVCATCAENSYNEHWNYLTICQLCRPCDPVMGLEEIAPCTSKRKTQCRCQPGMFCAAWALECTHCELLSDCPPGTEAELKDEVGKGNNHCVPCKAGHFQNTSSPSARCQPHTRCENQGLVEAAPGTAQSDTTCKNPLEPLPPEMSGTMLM
Protocol: as §1

hHGFR(cMet)-Fc = molecular target: T3, hHGFR(cMet)-Fc (human, UniProt P08581 25-932)
T3 construct: Bought (R&D systems); Coated on the plate; not shown: Fc of the bought fusion protein
T3 sequence (P08581 25-932): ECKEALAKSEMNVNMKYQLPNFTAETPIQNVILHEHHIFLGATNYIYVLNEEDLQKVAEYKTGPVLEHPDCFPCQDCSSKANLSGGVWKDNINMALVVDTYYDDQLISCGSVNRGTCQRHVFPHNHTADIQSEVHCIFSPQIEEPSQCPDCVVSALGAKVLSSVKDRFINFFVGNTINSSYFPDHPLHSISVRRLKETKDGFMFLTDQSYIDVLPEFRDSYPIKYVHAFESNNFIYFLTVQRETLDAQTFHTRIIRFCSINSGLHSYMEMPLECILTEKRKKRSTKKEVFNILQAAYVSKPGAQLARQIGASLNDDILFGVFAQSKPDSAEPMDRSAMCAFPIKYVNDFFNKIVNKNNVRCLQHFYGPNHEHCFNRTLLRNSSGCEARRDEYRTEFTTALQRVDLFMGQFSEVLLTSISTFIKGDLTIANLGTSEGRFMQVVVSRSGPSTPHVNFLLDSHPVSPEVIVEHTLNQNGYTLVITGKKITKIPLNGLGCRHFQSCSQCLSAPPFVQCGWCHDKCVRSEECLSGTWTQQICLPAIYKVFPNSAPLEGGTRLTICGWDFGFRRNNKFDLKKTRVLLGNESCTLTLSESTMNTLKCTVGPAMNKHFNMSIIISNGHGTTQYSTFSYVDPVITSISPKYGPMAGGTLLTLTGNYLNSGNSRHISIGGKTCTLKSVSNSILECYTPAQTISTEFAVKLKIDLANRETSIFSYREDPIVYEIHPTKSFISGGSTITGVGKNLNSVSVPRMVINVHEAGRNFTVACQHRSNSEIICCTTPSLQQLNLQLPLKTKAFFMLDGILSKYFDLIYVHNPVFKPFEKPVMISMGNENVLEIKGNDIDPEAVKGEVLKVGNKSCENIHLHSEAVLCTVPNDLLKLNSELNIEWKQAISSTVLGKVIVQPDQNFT
Protocol: as §1

B1: MetMAb × Matuzumab IgG BsAb, CH1/Cκ design 14.3.1.1 (bispecific antibody)
heavy 1: EVQLVESGGGLVQPGGSLRLSCAASGYTFTSYWLHWVRKAPGKGLEWVGMIDPSNSDTRFNPEFKDRFTISADTSKNTAYLQMNSLRAEDTAVYYCATYRSYVTPLDYWGQGTLVTVSSASTKGPSVFPLAPSSKSTSGGTAALGCLVADYFPEPVTVSWNSGALTSGVHTFPAVLQSSGLYSLASVVTVPSSSLGTQTYICNVNHKPSNTKVDKKVEPKSCDKTHTCPPCPAPELLGGPSVFLFPPKPKDTLMISRTPEVTCVVVDVSHEDPEVKFNWYVDGVEVHNAKTKPREEQYQSTYRVVSVLTVLHQDWLNGKEYKCKVSNKALPAPIEKTISKAKGQPREPQVYTLPPSREEMTDNQVSLTCLVKGFYPSDIAVEWESNGQPENNYKTTPPVLMSDGSFFLASKLTVDKSRWQQGNVFSCSVMHEALHNHYTQKSLSLSPG
light 1: RIQMTQSPSSLSASVGDRVTITCKSSQSLLYTSSQKNYLAWYQDKPGKAPKLLIYWASTRESGVPSRFSGSGSGTDFTLTISSLQPEDFATYYCQQYYAYPWTFGQGTKVEIKRTVAAPSVFIFPPSDEQLKSGTARVVCLLNNFYPREAKVQWKVDNALQSGNSQESVTEQDSKDSTYSLISTLTLSKADYEKHKVYACEVTHQGLSSPVTKSFNRGEC
heavy 2: QVQLVQSGAEVKKPGASVKVSCKASGYTFTSHWMHWVRYAPGQGLEWIGEFNPSNGRTNYNEKFKSKATMTVDTSTNTAYMELSSLRSEDTAVYYCASRDYDYDGRYFDYWGRGTLVTVSSASTKGPSVFPLAPSSKSTSGGTAALGCLVKDYFPEPVTVSWNSGALTSGVHTFPAVLQSSGLYSLSSVVTVPSSSLGTQTYICNVNHKPSNTKVDEKVEPKSCDKTHTCPPCPAPELLGGPSVFLFPPKPKDTLMISRTPEVTCVVVDVSHEDPEVKFNWYVDGVEVHNAKTKPREEQYQSTYRVVSVLTVLHQDWLNGKEYKCKVSNKALPAPIEKTISKAKGQPRRPRVYTLPPSREEMTKNQVSLVCLVKGFYPSDIAVEWESNGQPENNYKTTPPVLDSDGSFFLYSVLTVDKSRWQQGNVFSCSVMHEALHNHYTQKSLSLSPG
light 2: DIQMTQSPSSLSASVGDRVTITCSASSSVTYMYWYQRKPGDAPKLLIYDTSNLASGVPSRFSGSGSGTDYTFTISSLQPEDIATYYCQQWSSHIFTFGQGTKVEIKRTVAAPSVFIFPPSDKQLKSGTASVVCLLNNFYPREAKVQWKVDNALQSGNSQESVTEQDSKDSTYSLSSTLTLSKADYEKHKVYACEVTHQGLSSPVTKSFNRGEC
notes: Human IgG1; also called MetMAb × Matuzumab 14.3.1.1
Does B1 bind (hHER-2-Fc)?
Result: no binding

Does B1 bind (hLTβR-Fc-biotin)?
Result: no binding

B2: Pertuzumab × Matuzumab IgG BsAb, CH1/Cκ Wild-Type (AB / H4DR variable domain designs, 7.8.60 CH3, N297Q) (bispecific antibody)
heavy 1: EVQLVESGGGLVQPGGSLRLSCAASGFTFTDYTMDWVRKAPGKGLEWVADVNPNSGGSIYNQEFKGRFTLSVDRSKNTLYLQMNSLRAEDTAVYYCARNLGPSFYFDYWGQGTLVTVSSASTKGPSVFPLAPSSKSTSGGTAALGCLVKDYFPEPVTVSWNSGALTSGVHTFPAVLQSSGLYSLSSVVTVPSSSLGTQTYICNVNHKPSNTKVDKKVEPKSCDKTHTCPPCPAPELLGGPSVFLFPPKPKDTLMISRTPEVTCVVVDVSHEDPEVKFNWYVDGVEVHNAKTKPREEQYQSTYRVVSVLTVLHQDWLNGKEYKCKVSNKALPAPIEKTISKAKGQPREPQVYTLPPSREEMTDNQVSLTCLVKGFYPSDIAVEWESNGQPENNYKTTPPVLMSDGSFFLASKLTVDKSRWQQGNVFSCSVMHEALHNHYTQKSLSLSPG
light 1: RIQMTQSPSSLSASVGDRVTITCKASQDVSIGVAWYQDKPGKAPKLLIYSASYRYTGVPSRFSGSGSGTDFTLTISSLQPEDFATYYCQQYYIYPYTFGQGTKVEIKRTVAAPSVFIFPPSDEQLKSGTASVVCLLNNFYPREAKVQWKVDNALQSGNSQESVTEQDSKDSTYSLSSTLTLSKADYEKHKVYACEVTHQGLSSPVTKSFNRGEC
heavy 2: B1 heavy 2 with E217K
light 2: B1 light 2 with K122E
notes: Human IgG1; also called Pertuzumab × Matuzumab Wild-Type
What does the source list for B2?
binding result (hLTβR-Fc-biotin): no binding; binding result (hHGFR(cMet)-Fc): no binding

B3: MetMAb × Matuzumab IgG BsAb, CH1/Cκ design 14.3.1.2 (bispecific antibody)
heavy 1: B1 heavy 1 with A185G
light 1: B1 light 1
heavy 2: B1 heavy 2
light 2: B1 light 2
notes: Human IgG1; also called MetMAb × Matuzumab 14.3.1.2
Does B3 bind (hHER-2-Fc)?
Result: no binding

Does B3 bind (hLTβR-Fc-biotin)?
Result: no binding

B4: Pertuzumab × Matuzumab IgG BsAb, CH1/Cκ design 14.1.2 (bispecific antibody)
heavy 1: B2 heavy 1 with K149A, K215E
light 1: B2 light 1 with E123K, S131R
heavy 2: B1 heavy 2 with E217K
light 2: B1 light 2 with K122E
notes: Human IgG1; also called Pertuzumab × Matuzumab 14.1.2
Does B4 bind (hLTβR-Fc-biotin)?
Result: no binding

Does B4 bind (hHGFR(cMet)-Fc)?
Result: no binding

B5: Pertuzumab × Matuzumab IgG BsAb, CH1/Cκ design 14.3.1.1 (bispecific antibody)
heavy 1: B2 heavy 1 with K149A, S185A
light 1: B2 light 1 with S131R, S176I
heavy 2: B1 heavy 2
light 2: B1 light 2
notes: Human IgG1; also called Pertuzumab × Matuzumab 14.3.1.1
Does B5 bind (hLTβR-Fc-biotin)?
Result: no binding

Does B5 bind (hHGFR(cMet)-Fc)?
Result: no binding

B6: Pertuzumab × Matuzumab IgG BsAb, CH1/Cκ design 14.3.1.2 (bispecific antibody)
heavy 1: B2 heavy 1 with K149A, S185G
light 1: B2 light 1 with S131R, S176I
heavy 2: B1 heavy 2
light 2: B1 light 2
notes: Human IgG1; also called Pertuzumab × Matuzumab 14.3.1.2
What does the source list for B6?
binding result (hLTβR-Fc-biotin): no binding; binding result (hHGFR(cMet)-Fc): no binding
